{"source": "patent US20180021429A1", "about": "“ANTICANCER AGENTS OR ANTIMETASTATIC AGENTS USING FSTL1 AND COMBINATION DRUG THEREOF” (PHARMA FOODS INTERNATIONAL CO., LTD., priority 2015, published 2018)", "data": [{"system": "GFP-positive and Snail-positive B16-F10 tumor cells", "test": "Snail-positive B16-F10 bone metastasis model, intratumoral administration (Example 17)", "type": "in vivo, mouse", "settings": "intratumoral 10 mg/kg on day 7, assay day 14; FIG. 105A", "excerpt": "Three antibodies were comparatively analyzed for their antitumor effects and an immunosuppression-mitigating effect using bone metastasis models in which mouse melanoma cells B16-F10 forced to express Snail were subcutaneously and intravenously transplanted in C57BL/6N mice.\n1. Experiment Group (n=5) • 1. No treatment • 2. Control IgG (anti-DNP) • 3. Anti-FSTL1 Clone #6-55 • 4. Anti-FSTL1 Clone #7-34 • 5. Anti-FSTL1 Clone #8-1\n• Day 0: transplantation of GFP-positive and Snail-positive B16-F10 tumor cells (5×10^5 cells subcutaneously & 1×10^5 cells intravenously) • Day 7: intratumoral administration of the antibody (200 μg/0.1 mL/tumor) • Day 14: various assays (with a focus on flow cytometry analysis)\n• Effects on the growth of subcutaneous tumor (calculation of tumor volume by tumor size measurement): measured 7, 11, and 14 days after tumor implantation (FIG. 105C) • Effects on bone metastasis (GFP-positive tumor cells in bone marrow) (FIG. 105A) • Effects on the expansion of mesenchymal stem cells (CD45− negative cells in bone marrow and in the spleen) (FIGS. 105B and 105D) • Effects on the expansion of immunosuppressive Treg cells (CD4-positive and Foxp3-positive cells in bone marrow or the spleen) (FIG. 105D) • Other immunosuppressive properties (FIG. 105D)\nIn order to evaluate in vivo antibody activity, antitumor effects and immunosuppression-mitigating effects were comparatively analyzed using bone metastasis models in which mouse melanoma cells (B16-F10) forced to express Snail were subcutaneously and intravenously transplanted in C57BL/6N mice. […]\nIt is known that when Snail-positive tumor cells are subcutaneously or intravenously transplanted to mice, the tumor metastasizes preferentially to bone marrow in addition to various organs, and this incurs the expansion of mesenchymal stem cells (MSCs) originating in the bone marrow, thereby systemically and strongly suppressing the induction of antitumor immunity (Cancer Research 73: 6185, 2013). […] The percentage (%) of CD45^− cells in the bone marrow cells was analyzed by flow cytometry.", "values": [{"molecule": "#8-1: chicken-mouse chimeric anti-FSTL1 antibody clone; variable regions SEQ ID NO: 791 (light), 793 (heavy) (antibody, V domains shown, mouse constant regions) VH: AVTLDESGGGLQTPGGALSLVCKGSGFTFSSFNMFWVRQAPGKGLEWVAGIGKDGVPKYGAAVDGRATISKDNGQSTMRLQLNNLRAEDTGTYFCAKAAGGCSYDWCGIYAGDIDTWGHGTEVIVSS VL: ASTQPSSVSANPGEAVKITCSGGSGSYYGWYQQKSPGSAPVTVIYNNNQRPSDIPSRFSGSKSGSTATLTITGVQAEDEAVYFCGGYDSSSGHGGIFGAGTTLTVL", "bone metastasis (GFP-positive tumor cells in bone marrow)": "suppressed"}, {"molecule": "#6-55: chicken-mouse chimeric anti-FSTL1 antibody clone; variable regions SEQ ID NO: 783 (light), 785 (heavy) (antibody, V domains shown, mouse constant regions) VH: AVTLDESGGGLQTPGGALSLVCKGSGFTFTSVTMQWVRQAPGKGLEWVASVCSGSSTYYAPAVKGRATISRDNGQSTVRLQLSNLRPEDTGTYYCAKIAGRARWSCTSAAYNIDAWGHGTEVIVSS VL: ASTQPSSVSAIPGETVKITCSGGGNNYGWYQQRSPGSAPVTVIYYNDNRPSNIPSRFSGSTSGSTSTLTITGVQADDEAIYYCGSWDSNTDSGIFGAGTTLTVL", "bone metastasis (GFP-positive tumor cells in bone marrow)": "suppressed"}, {"molecule": "#7-34: chicken-mouse chimeric anti-FSTL1 antibody clone; variable regions SEQ ID NO: 787 (light), 789 (heavy) (antibody, V domains shown, mouse constant regions) VH: AVTLDESGGGLQTPGGGLSLVCKASGFTFSSVTMQWVRQAPGKGLEWVASICSGSSTYYGPAVKGRATISRDNGQNTVRLQLNNLRAEDTATYYCAKIVGRGRWSCTSAAYNIDAWGHGTEVIVSS VL: ASTQPSSVSANPGETVKITCSGGGNNYGWYQQKSPGSAPVTVIYYNNNRPSNIPSRFSGSTSGSTSTLTITGVQAEDEAVYYCGSYEGSTDSGIFGAGTTLTVL", "bone metastasis (GFP-positive tumor cells in bone marrow)": "no suppressive effect"}]}]}
